Test results taken from patent publication US10844127.
Read-outs that look alike come from different tables or passages of the source.

Tests used:
Assay in all cases: cell-based or functional assay
[1] = target: human EGFR, full length (human) (UniProt P00533)
[2] = target: human HER3 (ErbB-3) on BxPC-3 cells (human) (UniProt P21860)
[3] = target: human EGFR, full length (human) (UniProt P00533); remark: listed apart in the source
[4] = target: human HER3 (ErbB-3) on BxPC-3 cells (human) (UniProt P21860); remark: listed apart in the source

B1: MEHD7945A (antibody, INN chains, looked up, V domains shown)
VH: EVQLVESGGGLVQPGGSLRLSCAASGFTLSGDWIHWVRQAPGKGLEWVGEISAAGGYTDYADSVKGRFTISADTSKNTAYLQMNSLRAEDTAVYYCARESRVSFEAAMDYWGQGTLVTVSS
VL: DIQMTQSPSSLSASVGDRVTITCRASQNIATDVAWYQQKPGKAPKLLIYSASFLYSGVPSRFSGSGSGTDFTLTISSLQPEDFATYYCQQSEPEPYTFGQGTKVEIK
B1 was tested, and the IC50 for BxPC-3 ligand-driven cell proliferation inhibition (pM) [1] was 260 pM, the IC50 for BxPC-3 ligand-driven cell proliferation inhibition (pM) [2] was 260 pM and the IC50 for BxPC-3 ligand-driven cell proliferation inhibition (pM) [3] was 287 pM. For the same binder, the IC50 for BxPC-3 ligand-driven cell proliferation inhibition (pM) [4] was 287 pM.
